Measured values: patent publication US20040072758A1

Tests used:
[1] = target: human neurotensin type 1 receptor (human), P30989
[2] = target: T1, mouse neurotensin type 3 receptor (solubilized) (mouse), Q6PHU5
T1 chain: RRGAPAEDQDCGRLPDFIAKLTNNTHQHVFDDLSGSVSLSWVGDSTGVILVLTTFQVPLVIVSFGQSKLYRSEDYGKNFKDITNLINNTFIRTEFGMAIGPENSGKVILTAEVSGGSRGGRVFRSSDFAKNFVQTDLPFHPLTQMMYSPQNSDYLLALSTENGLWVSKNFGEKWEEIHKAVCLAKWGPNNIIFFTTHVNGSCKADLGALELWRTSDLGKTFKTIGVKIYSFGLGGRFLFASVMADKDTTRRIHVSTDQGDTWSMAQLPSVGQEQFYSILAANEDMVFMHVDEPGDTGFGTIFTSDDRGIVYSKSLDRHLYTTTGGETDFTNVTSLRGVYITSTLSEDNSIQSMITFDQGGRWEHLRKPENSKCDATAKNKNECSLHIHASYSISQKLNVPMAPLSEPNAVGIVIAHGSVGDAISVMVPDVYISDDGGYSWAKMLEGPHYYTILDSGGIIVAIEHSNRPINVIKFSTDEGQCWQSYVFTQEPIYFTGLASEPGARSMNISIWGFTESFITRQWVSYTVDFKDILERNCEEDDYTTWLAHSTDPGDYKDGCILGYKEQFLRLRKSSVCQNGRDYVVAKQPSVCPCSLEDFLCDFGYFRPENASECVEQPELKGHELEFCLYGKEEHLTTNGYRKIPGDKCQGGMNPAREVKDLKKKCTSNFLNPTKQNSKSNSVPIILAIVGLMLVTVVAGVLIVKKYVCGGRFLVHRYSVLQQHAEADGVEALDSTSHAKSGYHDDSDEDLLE

[3] = target: T2, rat neurotensin type 1 receptor (rat), P20789
T2 chain: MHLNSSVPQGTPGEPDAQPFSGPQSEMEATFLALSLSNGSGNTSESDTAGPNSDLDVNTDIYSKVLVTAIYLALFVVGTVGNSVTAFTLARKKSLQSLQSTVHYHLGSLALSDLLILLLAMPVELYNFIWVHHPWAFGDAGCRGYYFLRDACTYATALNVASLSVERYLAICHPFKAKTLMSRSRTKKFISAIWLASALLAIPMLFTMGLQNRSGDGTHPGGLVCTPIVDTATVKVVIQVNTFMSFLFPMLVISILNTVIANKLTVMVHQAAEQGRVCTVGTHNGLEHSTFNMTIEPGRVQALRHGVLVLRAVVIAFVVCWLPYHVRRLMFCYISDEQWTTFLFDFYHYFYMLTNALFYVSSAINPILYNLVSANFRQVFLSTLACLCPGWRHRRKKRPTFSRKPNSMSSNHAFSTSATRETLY

[4] = target: T3, rat neurotensin type 2 receptor (rat), Q63384
T3 chain: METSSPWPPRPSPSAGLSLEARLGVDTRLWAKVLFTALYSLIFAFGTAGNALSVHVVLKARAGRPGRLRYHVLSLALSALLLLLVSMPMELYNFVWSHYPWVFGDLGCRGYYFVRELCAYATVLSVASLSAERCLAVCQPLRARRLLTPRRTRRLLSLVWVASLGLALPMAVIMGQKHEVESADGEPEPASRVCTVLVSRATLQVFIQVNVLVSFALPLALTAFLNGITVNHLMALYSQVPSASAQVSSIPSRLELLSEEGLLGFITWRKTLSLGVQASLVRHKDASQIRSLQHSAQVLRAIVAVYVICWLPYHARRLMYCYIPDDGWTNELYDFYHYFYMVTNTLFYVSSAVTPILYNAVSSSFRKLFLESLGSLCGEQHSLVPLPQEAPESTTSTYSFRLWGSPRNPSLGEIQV

[5] = target: human neurotensin type 1 receptor (human), P30989; assay: competition radioligand binding, reference neurotensin1-13

human neurotensin type 1 receptor (human), P30989, sequence (P30989 whole entry): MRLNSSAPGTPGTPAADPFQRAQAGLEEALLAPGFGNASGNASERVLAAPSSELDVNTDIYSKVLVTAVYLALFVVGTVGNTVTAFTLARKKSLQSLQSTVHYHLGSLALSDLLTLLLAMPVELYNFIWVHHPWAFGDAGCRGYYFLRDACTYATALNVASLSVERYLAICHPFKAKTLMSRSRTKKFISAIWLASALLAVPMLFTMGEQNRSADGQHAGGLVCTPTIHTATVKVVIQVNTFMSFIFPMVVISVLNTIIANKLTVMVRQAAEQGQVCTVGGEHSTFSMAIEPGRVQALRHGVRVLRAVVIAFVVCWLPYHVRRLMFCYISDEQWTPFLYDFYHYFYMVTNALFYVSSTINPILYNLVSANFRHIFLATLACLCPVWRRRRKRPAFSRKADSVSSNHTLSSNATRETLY

Binder: QSEEGGSNATKKPYIL (modifications not checked) [non-glycosylated Thr10-contulakin-G]
- IC50 [1]: 23 nM
- IC50 [2]: 71 nM
- IC50 [3]: 79 nM
- IC50 [4]: 170 nM
- fold lower affinity than Neurotensin1-13 [5]: 10 fold

Binder: QSEEGGSNATKKPYIL (modifications not checked) [contulakin-G (synthetic glycosylated 16-amino acid peptide, Gal(beta1->3)GalNAc(alpha1->) on Thr10)]
- IC50 [1]: 960 nM
- IC50 [2]: 250 nM
- IC50 [3]: 524 nM
- IC50 [4]: 730 nM
